Measurements published in paper PMC3721995.
Ends that are not written are not given here. * marks the point of attachment. Biotin = O=C1N[C@H]2[C@H](CS[C@H]2CCCCC(=O)*)N1

Each binder was assayed against recombinant HIV-1 gp120BaL protein (HIV-1 (isolate BaL)) (assay: ELISA; solid-phase ELISA; gp120BaL coated at 8 ug/ml (50 mM bicarbonate pH 9.6, 4°C, 16 h); biotinylated peptides at 30 ug/ml in 20 mM Tris-HCl pH 7.4, 0.05% Tween-20, 37°C, 60 min; detected with AP-streptavidin, read at 405 nm).

Q: How did the relative binding turn out when Biotin-NCGHGEDAGVICSA (cysteine pairing not given here) [SRCR1 peptide P20] was run?
A: 1.5

Q: How did the relative binding turn out when Biotin-GSGPIALDDVRCSGH [SRCR1 peptide P14] was run?
A: 1.5

Q: How did the relative binding turn out when Biotin-ALDDVRCSGHESYLW [SRCR1 peptide P15] was run?
A: 2

Q: With Biotin-RGSWGTVCDDSWDTN [SRCR1 peptide P6] as the binder, how does the relative binding read?
A: 4.5

Q: For Biotin-VEILYRGSWGTVCDD [SRCR1 peptide P5], which relative binding is on record?
A: 4

Q: Which relative binding does the source give for Biotin-GWLSHNCGHGEDAGV [SRCR1 peptide P19, biotinylated] here?
A: 7.5
